In the RNAGym collection of RNA variant scans (doi:10.7554/elife.90254):

B1: LINE1-full (parent)
chain: UACGUAGGUGGUUUUCCCCUGAUAGUGCUAAGGGGGCCUGGAAGUUUGGACUGGGCAGAGCUCAACACAGCGUGGCAAAGUGGCUGUGGCUAGACUGCCUCUCUGGAUUCCUCGUCACUCAGCAGGGCAUCUCUGAGAGAAAUGCC

Variants of: B1
Assay: self-cleavage, relative activity (ratio to wild type); higher = more cleavage; in vitro, sequencing; the parent is a self-cleaving ribozyme

Variant | self-cleavage
A69U U102C | 0.06
A6U C95A | 0.07
A50C A67G | 0.62
A24G G55A | 0.3
U91C A140C | 0.38
G93U | 0.06
U62G U87A | 0.1
A57G G60A | 0.06
A50U G80C | 0.82
U12C A50G | 1.15
U14C U39C | 1
U20A C95U | 0.13
A6U U15C | 1.09
U130C A140U | 0.32
U5C A142C | 0.98
G72A U96A | 0.04
U73A U134G | 0.45
U104C G135A | 1.52
U15C C111U | 1.47
A43C U108C | 1.78
U29C U109A | 1.28
U14C G35C | 1.46
A78G U132C | 1.39
U91C U143C | 0.78

Variant | self-cleavage
C66U U85G | 0.03
G114A U132C | 1.45
A30G A57U | 0.27
G36U | 1.35
G40U A140U | 1.79
U115A A138G | 1.29
U73C A78G | 1.12
U47A A69U | 0.04
U87C U134C | 0.11
A94G A121C | 0.57
A6G A50C | 1.23
U96C U134C | 0.11
C51U U119C | 1.73
U87C U100C | 0.26
A69G A124U | 0
U9C G34U | 1.09
G35A A124G | 0.61
A64U A77U | 0.48
C76U A79G | 2.1
A67U A138U | 0.15
A94C A117C | 0.07
C68G | 0.05
C56U A107G | 0.1
G4A U108C | 1.04

Variant | self-cleavage
A24U G106A | 1.51
U108C A124U | 1.81
G40A A77G | 1.02
G41U U62A | 0.04
U45A A57G | 1.01
C68G U134G | 0.04
G25A G27A | 1.03
U47G U102A | 1.34
G60A A136G | 0.02
G55U C133A | 0.26
A117C G144U | 1.13
U14A U102C | 1.19
C19A U85G | 0.13
A124C A138G | 1.39
G72U U87A | 0.03
G21A U39C | 0.78
G34C A42G | 2.94
A22U A79G | 0.96
U47G A57G | 0.62
G25A A142C | 2.3
U102C G125U | 1.23
U13C G48U | 0.91
G75U U85C | 0.07
A69U C118U | 0.01

Variant | self-cleavage
U73C C113U | 1.85
G11A G105A | 1.27
G41A U62C | 0.08
U39G U52C | 0
A78G U108C | 1.64
A79G U134G | 0.57
U12C G80A | 0.84
U52A A138G | 1.57
U15C U143C | 1.29
G11C A138G | 1.22
A22G A69C | 0
U15G A50C | 1.37
U104A U119C | 1.47
G8C U81C | 1.08
U26A G35U | 1.14
U14C G36C | 1.41
A2G A57U | 0.38
U46C U132A | 2.44
U12C A59G | 0.15
A6G G126A | 0.99
A6G A92G | 0.22
A31U U85A | 0.07
G35C U85C | 0.22
U100G A138G | 1.27

Variant | self-cleavage
G53A G74A | 1.04
U46A A78G | 0.69
U29C A78U | 2.53
C56G A129C | 0.08
A92G C128A | 0.04
U9C G105A | 1.47
G48U U108C | 1.27
A22C A129U | 1.96
U108G U134C | 2.7
G48A A50G | 0.53
G36A C63U | 0.36
A92G C113U | 0.1
A22U U96G | 0.53
U85C U104A | 0.08
A65G U81C | 0.09
G27A A78G | 0.74
G32A U119C | 1.29
A77U U109C | 0.98
G44U A107G | 1.7
U14A U108C | 0.87
C56A G106A | 0.08
U9A U108A | 1.01
G27A A79G | 1.07
G25A U109A | 1.72

Variant | self-cleavage
U102A A124G | 1.08
C18U A129G | 0.81
A43G U108A | 0.71
G60C U102C | 0.06
U1C A107G | 0.75
U108C U134A | 2.21
A64G U87C | 0.06
A57U U96C | 0.06
G89U C123G | 0.07
U132A G144A | 1.82
U9C U52G | 1.69
C118A G125U | 1.03
A30U G54U | 0.84
A24G A94G | 0.31
U14C C28U | 0.8
U96C U108G | 0
A67G U143A | 0.42
G21A A59G | 0.04
A77G C90A | 0.03
U9C A24G | 1.04
U26C A67G | 1.16
U119A A140G | 1.29
A57G U132A | 1.29
G74A A79G | 0.8

Variant | self-cleavage
A77G G139U | 2.41
A50G A67G | 0.37
U13C A141C | 1.59
U1C C38A | 0.55
U62C U115C | 0.1
A43U U104C | 1.67
A30G U81A | 1.7
A2C A50U | 0.75
A24G A65G | 0.3
U20C U100A | 0.81
G8U U119A | 1.51
A42G G80C | 0.62
U39A U91C | 0.43
C103U A107U | 1.2
U9A U109A | 0.14
U29A A138G | 1.11
U115C U132A | 2.4
C118A A142G | 1.41
G93U U112C | 0.03
A30G U39C | 1.13
A78G U100A | 0.16
G48A U62A | 0.02
U5C U46C | 0.99
